Source: paper PMC5568661
Where two headings read alike, the source gives them in different places.

Experiments:
Assay in all cases: NMR 15N-HSQC titration
[1] = target: T1, Ets-1 ΔN301 (murine, UniProt P27577 301-440)
T1 sequence: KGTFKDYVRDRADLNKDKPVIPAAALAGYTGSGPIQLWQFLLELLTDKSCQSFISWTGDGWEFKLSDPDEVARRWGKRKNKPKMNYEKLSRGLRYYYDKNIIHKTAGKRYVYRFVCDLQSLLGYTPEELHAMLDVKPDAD

[2] = target: T1, Ets-1 ΔN301; remark: listed apart in the source
[3] = target: T1, Ets-1 ΔN301; remark: listed apart in the source
[4] = target: T1, Ets-1 ΔN301; remark: listed apart in the source
[5] = target: T2, Ets-1 ΔN279 (murine, UniProt P27577 279-440)
T2 sequence: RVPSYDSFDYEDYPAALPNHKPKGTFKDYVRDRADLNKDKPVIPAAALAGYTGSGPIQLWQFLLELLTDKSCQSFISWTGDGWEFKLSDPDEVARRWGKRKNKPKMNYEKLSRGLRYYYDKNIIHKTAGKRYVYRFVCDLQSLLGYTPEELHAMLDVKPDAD

B1: DNANSP9 (dsDNA)
DNA 1: GCACTCTAG
DNA 2: CTAGAGTGC
Kd [1]: ~10 µM

B2: DNANSP15 (dsDNA)
DNA 1: GATGCAGTGTAGTCG
DNA 2: CGACTACACTGCATC
Kd [2]: < 10 µM

B3: DNASP9 (dsDNA)
DNA 1: GCCGGAAGT
DNA 2: ACTTCCGGC
binding result [3]: binds

B4: DNASP12 (dsDNA)
DNA 1: CAGCCGGAAGTG
DNA 2: CACTTCCGGCTG
binding result [4]: binds

B5: DNASP14 (dsDNA)
DNA 1: CCAAGCCGGAAGTG
DNA 2: CACTTCCGGCTTGG
binding result [5]: binds
